Experiments:
[1] = molecular target: Antp^I32A−H36A-hTBP pair (VC-Antp HD helix 2 mutant with VN-TBP) as acceptor in BiFC-FRET (Drosophila | human) (UniProt P20226)
[2] = molecular target: AntpΔN-hTBP pair (VC-AntpΔN with VN-TBP) as acceptor in BiFC-FRET (Drosophila | human) (UniProt P02833)
[3] = molecular target: Antp^AAAA-hTBP pair (VC-Antp YPWM mutant with VN-TBP) as acceptor in BiFC-FRET (Drosophila | human) (UniProt P02833)
[4] = molecular target: Antp^AAAA, Antp with the YPWM motif substituted by alanines, fused to the C-terminal fragment of Venus (Drosophila), P02833
Antp^AAAA, Antp with the YPWM motif substituted by alanines, fused to the C-terminal fragment of Venus (Drosophila), P02833, sequence (P02833 whole entry, the tested form may be a part): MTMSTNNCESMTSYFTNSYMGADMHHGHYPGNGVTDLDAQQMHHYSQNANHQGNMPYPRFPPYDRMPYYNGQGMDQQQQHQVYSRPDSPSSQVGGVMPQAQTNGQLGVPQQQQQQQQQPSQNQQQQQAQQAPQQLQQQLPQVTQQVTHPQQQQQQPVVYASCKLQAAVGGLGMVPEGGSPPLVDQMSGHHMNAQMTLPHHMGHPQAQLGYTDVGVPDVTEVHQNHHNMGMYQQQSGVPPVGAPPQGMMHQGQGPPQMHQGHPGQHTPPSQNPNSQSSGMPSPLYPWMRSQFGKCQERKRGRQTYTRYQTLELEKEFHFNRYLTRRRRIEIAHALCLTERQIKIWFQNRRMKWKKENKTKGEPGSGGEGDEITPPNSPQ

Antp^AAAA-hTBP pair (VC-Antp YPWM mutant with VN-TBP) as acceptor in BiFC-FRET (Drosophila | human), sequence (P02833 whole entry, change not shown, chain 1 of 2, the tested form may be a part): as the sequence (P02833 whole entry, the tested form may be a part) above
Antp^AAAA-hTBP pair (VC-Antp YPWM mutant with VN-TBP) as acceptor in BiFC-FRET (Drosophila | human), sequence (P20226 whole entry, change not shown, chain 2 of 2, further chain, the tested form may be a part): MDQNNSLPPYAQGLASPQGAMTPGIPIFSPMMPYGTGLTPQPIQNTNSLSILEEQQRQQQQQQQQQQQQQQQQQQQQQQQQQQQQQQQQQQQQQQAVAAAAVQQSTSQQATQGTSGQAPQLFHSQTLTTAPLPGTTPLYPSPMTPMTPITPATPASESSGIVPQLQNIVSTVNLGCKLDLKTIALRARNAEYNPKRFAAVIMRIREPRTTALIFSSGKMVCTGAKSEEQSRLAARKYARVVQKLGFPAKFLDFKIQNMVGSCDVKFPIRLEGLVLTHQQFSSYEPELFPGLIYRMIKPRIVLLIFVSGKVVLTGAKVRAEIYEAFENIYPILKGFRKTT
Antp^I32A−H36A-hTBP pair (VC-Antp HD helix 2 mutant with VN-TBP) as acceptor in BiFC-FRET (Drosophila | human), sequence (P20226 whole entry, looked up, stated change not applied, tested part not stated): as the sequence (P20226 whole entry, change not shown, chain 2 of 2, further chain, the tested form may be a part) above
AntpΔN-hTBP pair (VC-AntpΔN with VN-TBP) as acceptor in BiFC-FRET (Drosophila | human), sequence (P02833 270-378, stated change not applied, chain 1 of 2): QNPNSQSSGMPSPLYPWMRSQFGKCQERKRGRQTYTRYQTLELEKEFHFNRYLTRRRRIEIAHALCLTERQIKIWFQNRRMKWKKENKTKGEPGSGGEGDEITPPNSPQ
AntpΔN-hTBP pair (VC-AntpΔN with VN-TBP) as acceptor in BiFC-FRET (Drosophila | human), sequence (P20226 whole entry, stated change not applied, chain 2 of 2, further chain): as the sequence (P20226 whole entry, change not shown, chain 2 of 2, further chain, the tested form may be a part) above

B1: TFIIEβ fused to ECFP (natural protein)
chain: MDPALLREREAFKKRAMATPTVEKKSKPDRPAPPPPSDDSRRKMRPPNAPRLDATTYKTMSGSSQYRFGVLAKIVKFMRTRHQDGDDHPLTIDEILDETNQLDIGQSVKNWLASEALHNNPKVEASPCGTKFSFKPVYKIKDGKTLMRLLKQHDLKGLGGILLDDVQESLPHCEKVLKNRSAEILFVVRPIDKKKILFYNDRTANFSVDDEFQKLWRSATVDAMDDAKIDEYLEKQGIRSMQDHGLKKAIPKRKKAANKKRQFKKPRDNEHLADVLEVYEDNTLTLKGVNPT
transactivation on pGLH11 of Antp^I32A−H36A with TBP and TFIIEβ, percent of Antp alone (Fig. 5B) [1]: 72%

B2: Extradenticle (Exd) (144–376) fused to ECFP (domain or fragment)
chain: DGADNAIEHSDYRAKLAQIRQIYHQELEKYEQACNEFTTHVMNLLREQSRTRPITPKEIERMVQIIHKKFSSIQMQLKQSTCEAVMILRSRFLDARRKRRNFSKQASEILNEYFYSHLSNPYPSEEAKEELARKCGITVSQVSNWFGNKRIRYKKNIGKAQEEANLYAAKKAAGASPYSMAGPPSGTTTPMMSPAPPQDSMGYPMGSGGYDQQQPYDNSMGGYDPNLHQDLSP
transactivation on pGLH11 of AntpΔN with TBP and Exd, percent of Antp alone (Fig. 5C) [2]: 65% | transactivation on pGLH11 of Antp^AAAA with TBP and Exd, percent of Antp alone (Fig. 5C) [3]: 70%

B3: Extradenticle (Exd) (144–376) fused to ECFP, P40427 144-376 (domain or fragment)
chain: DGADNAIEHSDYRAKLAQIRQIYHQELEKYEQACNEFTTHVMNLLREQSRTRPITPKEIERMVQIIHKKFSSIQMQLKQSTCEAVMILRSRFLDARRKRRNFSKQASEILNEYFYSHLSNPYPSEEAKEELARKCGITVSQVSNWFGNKRIRYKKNIGKAQEEANLYAAKKAAGASPYSMAGPPSGTTTPMMSPAPPQDSMGYPMGSGGYDQQQPYDNSMGGYDPNLHQDLSP
transactivation on pGLH11 of Antp^AAAA with Exd, percent of Antp alone (Fig. 5C) [4]: 97%
